Measured values reported in article PMC9568614 (2022).

Key:
[1] = target: T1, recombinant human FcRn (FcRn alpha-chain with C-terminal BirA 10x-Histidine tag, with beta-2-microglobulin) (human, UniProt P55899 24-297; P61769 21-119); experiment: SPR; pH 6.0
[2] = target: T1, recombinant human FcRn (FcRn …); experiment: SPR; pH 7.4

B1: Fc-MST-HN (IgG1 Fc fragment with M252Y, S254T, T256E, H433K, N434F) (domain or fragment)
chain: DKTHTCPPCPAPELLGGPSVFLFPPKPKDTLYITREPEVTCVVVDVSHEDPEVKFNWYVDGVEVHNAKTKPREEQYNSTYRVVSVLTVLHQDWLNGKEYKCKVSNKALPAPIEKTISKAKGQPREPQVYTLPPSRDELTKNQVSLTCLVKGFYPSDIAVEWESNGQPENNYKTTPPVLDSDGSFFLYSKLTVDKSRWQQGNVFSCSVMHEALKFHYTQKSLSLSP
In the case of B1, the Kd [1] is reported as 33 nM and the Kd [2] is reported as 1220 nM.
